Results from article PMC7344267.

Biological target: T1, Nt^17 peptide, the seventeen-residue N-terminal region of huntingtin (htt)
T1 chain: MATLEKLMKAFESLKSF
Assay: native MS
Conditions: remark: other sources report otherwise

Which normalized collision energy for 50% signal decay of the complex does the source give for MATLEKLMKAFESLKSF [Nt^17 peptide, the seventeen-residue N-terminal region of huntingtin (htt)] here?
Its normalized collision energy for 50% signal decay of the complex is 20 NCE.

And the stoichiometry N?
The stoichiometry N was 4.
